B1: CAV1 (protein, UniProt Q03135 2-178, looked up)
Caveolin-1: SGGKYVDSEGHLYTVPIREQGNIYKPNNKAMADELSEKQVYDAHTKEIDLVNRDPKHLNDDVVKIDFEDVIAEPEGTHSFDGIWKASFTTFTVTKYWFYRLLSALFGIPMALIWGIYFAILSFLHIWAVVPCIKSFLIEIQCISRVYSIYVHTVCDPLFEAVGKIFSNVRINLQKEI
B2: RRBP1 (protein, UniProt Q9P2E9 1-1410, looked up)
Ribosome-binding protein 1: MDIYDTQTLGVVVFGGFMVVSAIGIFLVSTFSMKETSYEEALANQRKEMAKTHHQKVEKKKKEKTVEKKGKTKKKEEKPNGKIPDHDPAPNVTVLLREPVRAPAVAVAPTPVQPPIIVAPVATVPAMPQEKLASSPKDKKKKEKKVAKVEPAVSSVVNSIQVLTSKAAILETAPKEVPMVVVPPVGAKGNTPATGTTQGKKAEGTQNQSKKAEGAPNQGRKAEGTPNQGKKTEGTPNQGKKAEGTPNQGKKAEGTPNQGKKAEGAQNQGKKVDTTPNQGKKVEGAPTQGRKAEGAQNQAKKVEGAQNQGKKAEGAQNQGKKGEGAQNQGKKAEGAQNQGKKAEGAQNQGKKAEGAQNQGKKAEGAQNQGKKAEGAQNQGKKAEGAQNQGKKVEGAQNQGKKAEGAQNQGKKAEGAQNQGKKAEGAQNQGKKAEGAQNQGKKAEGAQNQGKKAEGAQNQGKKAEGAQNQGKKVEGAQNQGKKAEGAQNQGKKAEGAQNQGKKAEGAQNQGQKGEGAQNQGKKTEGAQGKKAERSPNQGKKGEGAPIQGKKADSVANQGTKVEGITNQGKKAEGSPSEGKKAEGSPNQGKKADAAANQGKKTESASVQGRNTDVAQSPEAPKQEAPAKKKSGSKKKGEPGPPDADGPLYLPYKTLVSTVGSMVFNEGEAQRLIEILSEKAGIIQDTWHKATQKGDPVAILKRQLEEKEKLLATEQEDAAVAKSKLRELNKEMAAEKAKAAAGEAKVKKQLVAREQEITAVQARMQASYREHVKEVQQLQGKIRTLQEQLENGPNTQLARLQQENSILRDALNQATSQVESKQNAELAKLRQELSKVSKELVEKSEAVRQDEQQRKALEAKAAAFEKQVLQLQASHRESEEALQKRLDEVSRELCHTQSSHASLRADAEKAQEQQQQMAELHSKLQSSEAEVRSKCEELSGLHGQLQEARAENSQLTERIRSIEALLEAGQARDAQDVQASQAEADQQQTRLKELESQVSGLEKEAIELREAVEQQKVKNNDLREKNWKAMEALATAEQACKEKLLSLTQAKEESEKQLCLIEAQTMEALLALLPELSVLAQQNYTEWLQDLKEKGPTLLKHPPAPAEPSSDLASKLREAEETQSTLQAECDQYRSILAETEGMLRDLQKSVEEEEQVWRAKVGAAEEELQKSRVTVKHLEEIVEKLKGELESSDQVREHTSHLEAELEKHMAAASAECQNYAKEVAGLRQLLLESQSQLDAAKSEAQKQSDELALVRQQLSEMKSHVEDGDIAGAPASSPEAPPAEQDPVQLKTQLEWTEAILEDEQTQRQKLTAEFEEAQTSACRLQEELEKLRTAGPLESSETEEASQLKERLEKEKKLTSDLGRAATRLQELLKTTQEQLAREKDTVKKLQEQLEKAEDGSSSKEGTSV
B3: DDX3X;DDX3Y (protein, UniProt O00571 2-662, looked up)
ATP-dependent RNA helicase …: SHVAVENALGLDQQFAGLDLNSSDNQSGGSTASKGRYIPPHLRNREATKGFYDKDSSGWSSSKDKDAYSSFGSRSDSRGKSSFFSDRGSGSRGRFDDRGRSDYDGIGSRGDRSGFGKFERGGNSRWCDKSDEDDWSKPLPPSERLEQELFSGGNTGINFEKYDDIPVEATGNNCPPHIESFSDVEMGEIIMGNIELTRYTRPTPVQKHAIPIIKEKRDLMACAQTGSGKTAAFLLPILSQIYSDGPGEALRAMKENGRYGRRKQYPISLVLAPTRELAVQIYEEARKFSYRSRVRPCVVYGGADIGQQIRDLERGCHLLVATPGRLVDMMERGKIGLDFCKYLVLDEADRMLDMGFEPQIRRIVEQDTMPPKGVRHTMMFSATFPKEIQMLARDFLDEYIFLAVGRVGSTSENITQKVVWVEESDKRSFLLDLLNATGKDSLTLVFVETKKGADSLEDFLYHEGYACTSIHGDRSQRDREEALHQFRSGKSPILVATAVAARGLDISNVKHVINFDLPSDIEEYVHRIGRTGRVGNLGLATSFFNERNINITKDLLDLLVEAKQEVPSWLENMAYEHHYKGSSRGRSKSSRFSGGFGARDYRQSSGASSSSFSSSRASSSRSGGGGHGSSRGFGGGGYGGFYNSDGYGGNYNSQGVDWWGN
modifications: or DDX3Y
B4: PNPLA6 (protein, UniProt Q8IY17 1-1375, looked up)
Patatin-like phospholipase …: MEAPLQTGMMGTSSHGLATNSSGAKVAERDGFQDVLAPGEGSAGRICGAQPVPFVPQVLGVMIGAGVAVVVTAVLILLVVRRLRVPKTPAPDGPRYRFRKRDKVLFYGRKIMRKVSQSTSSLVDTSVSATSRPRMRKKLKMLNIAKKILRIQKETPTLQRKEPPPAVLEADLTEGDLANSHLPSEVLYMLKNVRVLGHFEKPLFLELCRHMVFQRLGQGDYVFRPGQPDASIYVVQDGLLELCLPGPDGKECVVKEVVPGDSVNSLLSILDVITGHQHPQRTVSARAARDSTVLRLPVEAFSAVFTKYPESLVRVVQIIMVRLQRVTFLALHNYLGLTNELFSHEIQPLRLFPSPGLPTRTSPVRGSKRMVSTSATDEPRETPGRPPDPTGAPLPGPTGDPVKPTSLETPSAPLLSRCVSMPGDISGLQGGPRSDFDMAYERGRISVSLQEEASGGSLAAPARTPTQEPREQPAGACEYSYCEDESATGGCPFGPYQGRQTSSIFEAAKQELAKLMRIEDPSLLNSRVLLHHAKAGTIIARQGDQDVSLHFVLWGCLHVYQRMIDKAEDVCLFVAQPGELVGQLAVLTGEPLIFTLRAQRDCTFLRISKSDFYEIMRAQPSVVLSAAHTVAARMSPFVRQMDFAIDWTAVEAGRALYRQGDRSDCTYIVLNGRLRSVIQRGSGKKELVGEYGRGDLIGVVEALTRQPRATTVHAVRDTELAKLPEGTLGHIKRRYPQVVTRLIHLLSQKILGNLQQLQGPFPAGSGLGVPPHSELTNPASNLATVAILPVCAEVPMVAFTLELQHALQAIGPTLLLNSDIIRARLGASALDSIQEFRLSGWLAQQEDAHRIVLYQTDASLTPWTVRCLRQADCILIVGLGDQEPTLGQLEQMLENTAVRALKQLVLLHREEGAGPTRTVEWLNMRSWCSGHLHLRCPRRLFSRRSPAKLHELYEKVFSRRADRHSDFSRLARVLTGNTIALVLGGGGARGCSHIGVLKALEEAGVPVDLVGGTSIGSFIGALYAEERSASRTKQRAREWAKSMTSVLEPVLDLTYPVTSMFTGSAFNRSIHRVFQDKQIEDLWLPYFNVTTDITASAMRVHKDGSLWRYVRASMTLSGYLPPLCDPKDGHLLMDGGYINNLPADIARSMGAKTVIAIDVGSQDETDLSTYGDSLSGWWLLWKRLNPWADKVKVPDMAEIQSRLAYVSCVRQLEVVKSSSYCEYLRPPIDCFKTMDFGKFDQIYDVGYQYGKAVFGGWSRGNVIEKMLTDRRSTDLNESRRADVLAFPSSGFTDLAEIVSRIEPPTSYVSDGCADGEESDCLTEYEEDAGPDCSRDEGGSPEGASPSTASEMEEEKSILRQRRCLPQEPPGSATDA
B5: MOV10 (protein, UniProt Q9HCE1 1-1003, looked up)
Helicase MOV-10: MPSKFSCRQLREAGQCFESFLVVRGLDMETDRERLRTIYNRDFKISFGTPAPGFSSMLYGMKIANLAYVTKTRVRFFRLDRWADVRFPEKRRMKLGSDISKHHKSLLAKIFYDRAEYLHGKHGVDVEVQGPHEARDGQLLIRLDLNRKEVLTLRLRNGGTQSVTLTHLFPLCRTPQFAFYNEDQELPCPLGPGECYELHVHCKTSFVGYFPATVLWELLGPGESGSEGAGTFYIARFLAAVAHSPLAAQLKPMTPFKRTRITGNPVVTNRIEEGERPDRAKGYDLELSMALGTYYPPPRLRQLLPMLLQGTSIFTAPKEIAEIKAQLETALKWRNYEVKLRLLLHLEELQMEHDIRHYDLESVPMTWDPVDQNPRLLTLEVPGVTESRPSVLRGDHLFALLSSETHQEDPITYKGFVHKVELDRVKLSFSMSLLSRFVDGLTFKVNFTFNRQPLRVQHRALELTGRWLLWPMLFPVAPRDVPLLPSDVKLKLYDRSLESNPEQLQAMRHIVTGTTRPAPYIIFGPPGTGKTVTLVEAIKQVVKHLPKAHILACAPSNSGADLLCQRLRVHLPSSIYRLLAPSRDIRMVPEDIKPCCNWDAKKGEYVFPAKKKLQEYRVLITTLITAGRLVSAQFPIDHFTHIFIDEAGHCMEPESLVAIAGLMEVKETGDPGGQLVLAGDPRQLGPVLRSPLTQKHGLGYSLLERLLTYNSLYKKGPDGYDPQFITKLLRNYRSHPTILDIPNQLYYEGELQACADVVDRERFCRWAGLPRQGFPIIFHGVMGKDEREGNSPSFFNPEEAATVTSYLKLLLAPSSKKGKARLSPRSVGVISPYRKQVEKIRYCITKLDRELRGLDDIKDLKVGSVEEFQGQERSVILISTVRSSQSFVQLDLDFNLGFLKNPKRFNVAVTRAKALLIIVGNPLLLGHDPDWKVFLEFCKENGGYTGCPFPAKLDLQQGQNLLQGLSKLSPSTSGPHSHDYLPQEREGEGGLSLQVEPEWRNEL
B6: LRRC47 (protein, UniProt Q8N1G4 2-583, looked up)
Leucine-rich …: AAAAVSESWPELELAERERRRELLLTGPGLEERVRAAGGQLPPRLFTLPLLHYLEVSGCGSLRAPGPGLAQGLPQLHSLVLRRNALGPGLSPELGPLPALRVLDLSGNALEALPPGQGLGPAEPPGLPQLQSLNLSGNRLRELPADLARCAPRLQSLNLTGNCLDSFPAELFRPGALPLLSELAAADNCLRELSPDIAHLASLKTLDLSNNQLSEIPAELADCPKLKEINFRGNKLRDKRLEKMVSGCQTRSILEYLRVGGRGGGKGKGRAEGSEKEESRRKRRERKQRREGGDGEEQDVGDAGRLLLRVLHVSENPVPLTVRVSPEVRDVRPYIVGAVVRGMDLQPGNALKRFLTSQTKLHEDLCEKRTAATLATHELRAVKGPLLYCARPPQDLKIVPLGRKEAKAKELVRQLQLEAEEQRKQKKRQSVSGLHRYLHLLDGNENYPCLVDADGDVISFPPITNSEKTKVKKTTSDLFLEVTSATSLQICKDVMDALILKMAEMKKYTLENKEEGSLSDTEADAVSGQLPDPTTNPSAGKDGPSLLVVEQVRVVDLEGSLKVVYPSKADLATAPPHVTVVR
B7: SSR4 (protein, UniProt P51571 24-173, looked up)
Translocon-associated protein …: EACLEPQITPSYYTTSDAVISTETVFIVEISLTCKNRVQNMALYADVGGKQFPVTRGQDVGRYQVSWSLDHKSAHAGTYEVRFFDEESYSLLRKAQRNNEDISIIPPLFTVSVDHRGTWNGPWVSTEVLAAAIGLVIYYLAFSAKSHIQA

test system: GFP-14-3-3β and its binding proteins; assay: GFP-14-3-3β co-IP with LC-MS/MS label-free quantification, untreated versus PP1c-treated; parameters: species or system human; conditions: PP1 vs untreated; LFQ intensities; 3 replicates each

Molecule	Difference (log2), PP1 vs untreated [log2]
B1	0.6719
B2	0.6577
B3	0.6546
B4	0.7127
B5	0.6679
B6	0.6799

same assay, conditions: log2 difference; pairwise comparison PP1 vs untreated, label-free quantification, 3 replicates each

Molecule	Difference (log2), PP1 vs untreated
B7	2.257

test system: GFP-14-3-3β; assay: GFP-14-3-3β co-IP with LC-MS/MS, untreated GFP-14-3-3β versus GFP control (14-3-3 interactome); type: binding, human; conditions: log2 difference; pairwise comparison untreated vs GFP, label-free quantification, 3 replicates each

Molecule	Difference (log2), untreated vs GFP
B7	0.4182

same assay, conditions: untreated vs GFP; LFQ intensities; 3 replicates each

Molecule	Difference (log2), untreated vs GFP [log2]
B1	0.3485
B2	-0.1928
B3	0.1796
B4	1.692
B5	0.6155
B6	1.1154

From paper PMC7367873, “Dissecting the sequence determinants for dephosphorylation by the catalytic subunits of phosphatases PP1 and PP2A” (Nature Communications, 2020)
